Our source for the stoichiometry N values is paper PMC6250670.

The assay deals with MucR from Brucella abortus (wild-type full-length protein) (Brucella abortus). In words: SEC-MALS.

“MucR from Brucella abortus (wild-type full-length protein) (natural protein)”: the stoichiometry N (in general, a count of units in the complex or per binding partner) turned out to be 10.4.
